Experimental data taken from the nanobody polyreactivity screen of Harvey et al. (2022).

Assay: yeast display, Sf9 membrane polyspecificity reagent, FACS + sequencing; frameworks hold sequencing errors
Summary of the method: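 In a synthetic yeast display library (Saccharomyces cerevisiae BJ5465), nanobody expression was induced with galactose for 36–48 hours. FACS gates were set low and high (top ~1%) using anti-HA fluorescence for expression and streptavidin fluorescence for binding of the Sf9 membrane reagent. Each polyreactivity label is drawn from the gate of origin.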

Row | Sequence | polyreactivity (PSR sort gate)
1 | QVQLVESGGGLVPAGGSLRLSCAASGFTLYRYVMGWYRQAPGKERELVAAITRGGNTNYADSVKGRFTISRDNAKKTVYLQKNSLKPEDTAVYDCARRYRDYGRYGYWGQGTQVTVSS | high polyreactivity
2 | QVQLVESGGGLVQAGGSLRLSCAASGSISADDVMGWYRQAPGKERELVAAISVSAGTTYYADSVKGRFTISRDNAKNSVYLQMNSLKPEDSAVYYCAATDSYYWLYYYGYSPGNDYWGQGTQVNVSS | low polyreactivity
3 | QVQLVETGGGLVQAGGSLRLSCAASGLILGGYAMGWYRQAHGKERELVAAITRGGGSTFYADSVKGRFTISRDNAKNTVYLQMNSLKPEDTAVYYCAKRYPYRPPGPRYRGLSGYVYWGQGTQVTVSS | high polyreactivity
4 | QVQLVKSGGGLVQAGGSLRLTCAASGFTFFVYAMGWYRQAPGKETELVAAITSSGGSTYYADSVKGRFTISRDNAKNTVYLQMNSLKPEDTAVYYCAPDRYSYLGYPYEYEYWGQGTQVTVSS | low polyreactivity
5 | QVQLVESGGGLVHAGGSLRLSCPADGSTFVLNAIGWYRQAPGKERQLVAGISYGTGSTYYADSVKGRFTISRDHAKNTVYLQMNSLKPEDTAVYYCATDFDGYSIGMYYWGQGNQVTVSS | low polyreactivity
6 | QVQLVESGGGLVQAGGSLRLSCAAPGNTFQYYAMGWSRQAPGKEREFVAAISRRGGSTYYADSVKGRFTISRDNAKNTVYLQMNSLKPEDTAVYYCNKVIFLSQSSYSFLYAYDYWGQGTQVTVSS | high polyreactivity
7 | QVQLVESGGGLVQAGGSLRLSCAASGFIFSVNTMGWYRQAPGKERELVAAISGSGGSTYYADSVKGRFTISRDNAKNTVYLQMNSLKPEDTAVYYCAAGVAWRFYSWGQGTQVTVSS | high polyreactivity
8 | QVQLGESGGGLVQAGGSLRLSCAASGSTLYPYAMGWNRQATGTERELFAAISWSGTRTYYADSVKGRFTISRDNAKNTVYLQMNSLKQEDTAVYYCAKSRTRYPSNTKYDYWGQGTQVTVSS | high polyreactivity
9 | QVQLVESGGGLVQAGGSLRLSCAASGSIFRYYAMGWYRQAPGKERELVAAISIRGGRTYYADSVKGRFTISRDNAKNTVYLQMNSLKPEDTAVYYCATAFGFTAKYYYWGQGTQVTVSS | high polyreactivity
10 | QFQLVESGGGIVQAGGSHRVICAASASTFARNAMGWYRQATGKESEFVATISSSGGRTYYADSVKGRFTISRDNAKNTVYLQMNSLKPEDTAVYYCAADYHIVWYEEYSWGQGTQVTVSS | high polyreactivity
11 | QVQLVESGGGLVQAGGSLRLSCAASGRIFRANAMGWYRQAPGKERELVAGISYRGGSTYYADSVKGRFTISRDNAKNTVYLQMNSLKPEDTAVYYCAVRSSPELRYHYEYWGQGTQVTVSS | low polyreactivity
12 | QVQLVESGGGLVQEGGSLRLSCAASGTFYRYAMGWYRQAPGKERELVAAISRSGGSTYYADSVKGRFTISRDNAKNTVYLQMNSLKPEDTAVYYCAAYSRSFYLASLYDYWGQGTQVTVSS | high polyreactivity
13 | QVQLVDSGGGLVQAGGSLRLSCAASGSTFESYAMGWDRQAPGKERELVAAISTNGGRTRYADSVKGRFTISRDNAKNTVYLQMNSLKPVDTAVYYCATYVRGVYASSGYDYWGQGTQVTVSS | high polyreactivity
14 | QVQLVESGGGLVQAGGSLRLSCAASGRTFSYYAMGWYIQAPGKERELVAAITWSGASTYYADSVKGRFTISRDNAKNTVYLQMNSLKPEDTAVYYCNAGWDSGIVQSDETVYKYDYWGQGTQVTVSS | low polyreactivity
15 | QGQLVESGGGLGQEGGSLRLICAASGNTFDYYVMGWYRQAPGKERELVAVITSGSSTYYADSVKGRFTISRDNAKNTVFFQMNSLQPEDTAVYYCAKTTRRPGLRSYDYWGQGTQVTVSS | high polyreactivity
16 | QVQLVESGGGLDQAGGSLRLSCAASGRISIRNAMGWYRQAPGKETELVAAISRSGGSTYYADSLKGRFTISRDNAKNTVYLQMNSLKPEDTAVYYCAARGYSTYPMDYWGQGTQVTVSS | high polyreactivity
17 | QVQLVESGGGLVQAGGSLRLSCAASGSTLWSNTMGWYRQAPGKERELVDAISSGGGSTYADSVKGRFTISRDNAKNTVYLQMNSLKPEDTAVYYCAASAYYYRHSSWHRRDYWGQGTQVTVSS | high polyreactivity
18 | QVQLVESGGGLVQAGGSLRLSCAASGATFERNAMGWYRQAPGKERELVAAITGSGGRTYYADSVKGRFTISRDNAKNTVYLQMNSLKPEDTAVYYCAKDTYYPSSRYNRYYYWGQGTQVTVSS | high polyreactivity
19 | QDQLVESGGGLVQAGGSLRLSCAASGRILLDNAMGWYRQAPGKERELVAAISSGGRTYYADSVKGRFTISRDNAKNTVYLQLNSLKPEDTAVYYCAVSGGFYWGQGTQVTVSS | high polyreactivity
20 | QVQLVESGGGLVQAGGSLRLSCAASGFTFYSYAMGWYRQAPGKERELVAAISWSGTRTYYADSVKGRFTISRDNGKNTVYLQMTSLKPEVTAVYYCAGRGYRYGYGYWGQGTQVTVSS | high polyreactivity
21 | QVQLVESGGGLVQAGGSLRLSCAPSGRNFWYYGMVWYRPAPGRERELVAAISRSGGRTSYADSVKGRFTISRDNAKNTVYLQMNSLKPEDTAVYYCATDGYYRYGYWGQGTQVTVSS | high polyreactivity
22 | QIQLVESGGGLVQAGGSLRLSCAASGFTFYWYAMGWYRQAPGKEREFVAAIDQSGGSTYYADSVKGRFTISRDNAKNTVYLQMNSLKPEDTAVYYCAARYILWDGDSWTEFDYWGQGTQVTVSS | low polyreactivity

Row | Sequence | polyreactivity (PSR sort gate)
23 | QVQLVESGGGLLQAGGRLRLSCAASGGIFQGYAMGWYRQAPGKERELVAAISRSGGRTYYADSVKGRFTISRDNAKNTVYLQMNSLKPEDTAVYYCAKSQSAKGGYDYWGQATQVTVSS | high polyreactivity
24 | LVQLVESGGGLVQAGGSLRLSCAASGSLFVVTAMGWYRQAPGKERELVAAFSSGGRTYYADSVKGRFTISRDNAKNTVYLQMNSVKPEDTAVYYCAAGGWRGHCYWGQGTQVTVSS | high polyreactivity
25 | QVQLVESGGGLVQAGGSLLLSCAASGFTFTVYAMGWYILAPGKERELVAAISWNGGSTYYADSVKGRFTISRDNAKNTVYLQMNSLKPEDTAVYYCNTLQPYLYDYWGQGTQVTVSS | high polyreactivity
26 | QVQLVESGGGLFQAGGSLRLSCAATGRTYEGNAMGWSIQAPGKERELVAAITSGGRTNYADSVKGRFSISRDNAKNTVDLQMNSLKPEDTAVYYCAVETRDRSNYFPGQAYDYWGQGTQVTVSS | low polyreactivity
27 | QVQLVESGGGLVQAGGSLRLSCAASGSTLWVYAMGWYRQAPGKERELVAAITQSTGDTHYADSVKGRFTISRDNAKNTVYLQMNSLKPEDTAVYYCAADSYLSVYDPYGYWGQGTQVTVSS | low polyreactivity
28 | QVQLVESGGGLLKAGGSLRLSCAASGSTFSVYAMGWYRQAPGKEREFVARITWNGGRTYYADSVKGRFTISRDNAKNTVYLQMNSLKPEDTAVYYCAARGPTVTGTGGDYWGQGTQVTVSS | high polyreactivity
29 | QVQLVESGGGLVQAGGSLRLSCAASGSIFDTYAMGWYRQAPGKEREFVAAISRNGGSTYYADSVKGRFTISRDNAKNTVYLQMNSLKAEDTAVYYCATDKRHKFDYWGQGTQVTVSS | low polyreactivity
30 | QGQLVESGGGLVQAGGSLRLSCAASGITYYKYVMAWYIQAPGKERELVAAISRSSGSTYYADSVKGRFTISRDNAKNTVYLQMNSLKPEDTAVYYCARDQGKLVVPYDYWGQGTQVTVSS | high polyreactivity
31 | QVQLVESGGGLIQAGGSLRLSCATSGSIFDDYAMGWYRQAPGKERELVAAISSSGTSTYYADSVKGRFTISRDNAKNTVYLQMKSLKPEDTAVYYCAARSAILKSGYLMDYWGQGTQVTVSS | low polyreactivity
32 | QVQLVESGGGLVQAGGSLRLSCAASGRTFSWYAMGWYRQAPGKERELVAAITRDGGNTYYADSVKGRFTISRDHAKNTVYLQMNSLKPEDTAVYYCAKRGYVNYYCGQGTQVTVSS | high polyreactivity
33 | QVQLVESAGGLVQAGGSLRLSCAASGRTFVGNAMGWYRQAPGTERELVADITWSGDITYYADSVKGRFTISRDNAKNTVYLQMNSLKPDDTAVYYCAADYHRRRTDYDYWGQGTQVTESS | low polyreactivity
34 | QVQLVESGGGLVQAGGSLRLSCAASGSIFSWYAMGWYRQAPGKERELVAAITWTGGSTYYADSVKGRFTISRDNAKNTVYLQMLSLKPEDTAVYYCAARRVVYRYYWYSAYDYWGQGTQVTVSS | high polyreactivity
35 | QVQLVESGGGLVQAGGSLRLSCAASGRIFWVYVMGWYRQAPGKERELVADITSIGGSTYYADSVKGRFTISRDNAKNTVDLQMNSLKPEDTAVYYCAAARRPTYCPVYPYFGYEYWGQGTQVTVSS | low polyreactivity
36 | QVQLVESGGGLVQAGGSLRLSCAASGRTFTYNTMGWYRQAPGKERELVAAISSRGGRTYYADSVKGRFTISRDNAKNTVYLQMHSLKAEDTAVYYCAVYGYYSLSHWDYDYWAQGTQVTVSS | high polyreactivity
37 | QVQLVESGGGLVQAGGSLRLSCAASGSTFIVNAMGWYRQAPGKERELVAAITGGGGSTYYADSVKGRFTISRDNAKNTVYLQMNSLKPEDTAVDYCAARIQYAFGADYYWGQGTQVTVSS | low polyreactivity
38 | QVQLVDSGGGLVQAGGSLSLSCAASGRTFARYTMGWSRQAPGKERELLAVISRSGGSTYYADSVKGRFTISRDNAKNSVYLKKNSLKQEDTAVYYCAAGYFVVTTLEYYFWGQGTQVTVSS | high polyreactivity
39 | QVQLVESGGGLVQAGGSLRLSCAASGSTCDRYAMGWYRQAPGKERELVAAITDTGGSTYYADSVKGRFTISRDNAKNTVYLQMNSLKPEDTAVFYCAKGYFWSSYVSSRYGSWGQGTQVTVSS | high polyreactivity
40 | QVQLVESGRGLVQAGGSLRLSCAASGRIFRVNAMGWYRQAPGKERELVAAISWGGGSTYYADSVKGRFTISRDNAKNTVYLQMNSLKPEDTAVYYCATTLVKSQSRYYYWGQGTQVTVSS | high polyreactivity
41 | QVQLVESGGGLVQAGGSLRLSCAASGRIFKNNAMGWYRQAPGKEREFVAAISSIGGRTYYADSVKGRFTISRDNAKHTVYLQMNSLKPEDTAVYYCAARGYTGGLWYDYWGQRTQVTVSS | high polyreactivity
42 | QVQLVESRRGLVQAGGSLRLSCAASGSIFSGYVMGRYRKAPGKETELVAAITWSGGRTYYADSVKGRFTISRDYAKNTVYLQMNSLKPEDTAVYYCAKRNIKSSGYYYWGQGTQVTVSS | high polyreactivity
43 | QVQLVESGGGLVQAGGSLRLSSAATGITFSSYAMGSYRQAPGKERELVAAISTRGGSTYYADSVKGRFTISRDNAKNTVYLQMNSLKPEDTAVYYCATGGRGGRRYEYWGQGTQVTVSS | low polyreactivity
